In paper PMC6146289, “Combinatorial use of disulfide bridges and native sulfur-SAD phasing for rapid structure determination of coiled-coils” (Bioscience Reports, 2018):

Target: the molecule itself
Assay: SEC-MALS; oxidizing conditions: 20 mM Tris-HCl, pH 7.5, 150 mM NaCl, without DTT; S-200 10/30 column; 100 μl at 4 mg/ml injected; 10°C

B1: HsCEP135 82–144 (amino acids 82–144 of human CEP135, centrosomal protein of 135 kDa) (domain or fragment, UniProt Q66GS9 82-144, looked up)
chain: NNELYLELMKLREHSDQHVKELKTSLKKCARETADLKFLNNQYAHKLKLLEKESKAKNERIQQ
notes: coiled-coil fragment with one cysteine (Cys110) and one methionine per monomer; Under oxidizing conditions Cys110 forms a homotypic disulfide bridge between the two chains of the parallel coiled-coil dimer; Calculated molecular weight 7.71 kDa
- stoichiometry N: 2
